Reference: paper PMC4067515

Target: recombinant Bet v 1 trimer (birch)
Assay: SEC

- stoichiometry N: 2
Substance: recombinant Bet v 1 trimer
